B1: Azoarcus group I ribozyme (parent)
chain: GUGCCUUGCGCCGGGAAACCACGCAAGGGAUGGUGUCAAAUUCGGCGAAACCUAAGCGCCCGCCCGGGCGUAUGGCAACGCCGAGCCAAGCUUCGGCGCCUGCGCCGAUGAAGGUGUAGAGACUAGACGGCACCCACCUAAGGCAAACGCUAUGGUGAAGGCAUAGUCCAGGGAGUGGCGAAAGUCACACAAACCGG

Variants of: B1
Assay: reverse-splicing fitness (ratio to wild type); higher = more active; in vitro selection; Mg2+ level not given
How it was run: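 An in vitro group I ribozyme library with randomized positions was T7-transcribed and gel-purified. In triplicate, 10 pmol RNA in EPPS pH 7.5 was reacted with 50 pmoles of a 30-nt RNA substrate for 1 h at 37 °C across several added MgCl2 levels (1–48 mM), then stopped with EDTA. Products were reverse transcribed from a substrate-complementary primer, PCR-amplified and sequenced (HiSeq 4000). Fitness is a variant's read proportion after selection over that before, normalised to wild type.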

Row | Variant | reverse-splicing fitness
1 | C82G A111G A145U C150A C169U | 0.00982
2 | C82G A111G A145U C150A C169A | 0.00827
3 | C82G A111G A145U C150A C169G | 0.00845
4 | C82G A111G C150G C169A U176G | 0.00786
5 | C82G A111G C150G C169A U176A | 0.014
6 | C82G A111G C150G C169A U176C | 0.0166
7 | C82G A111G A145U C169G U176A | 0.0136
8 | C82G A111G A145U C169G U176C | 0.0147
9 | C82G A111G A145U C169G U176G | 0.00507
10 | C82G A111G A145U C150G C169G U176C | 0.00969
11 | C82G A111G A145U C150G C169G U176A | 0.00911
12 | C82G A111G A145U C150G C169G U176G | 0.00579
13 | C82G A111G A145C C169A U176C | 0.00787
14 | C82G A111G A145C C169A U176G | 0.00537
15 | C82G A111G A145C C169A U176A | 0.0111
16 | C82G A111G A145G C169U U176G | 0.0049
17 | C82G A111G A145G C169U U176C | 0.0155
18 | C82G A111G A145G C169U U176A | 0.0132
19 | C82G A111G A145U C150A | 0.0314
20 | C82G A111G A145U C150U | 0.261
21 | C82G A111G A145U C150G | 0.0338

Row | Variant | reverse-splicing fitness
22 | C82G A111G A120U C169G U176C | 0.00434
23 | C82G A111G A120U C169G U176A | 0.00289
24 | C82G A111G A120U C169G U176G | 0.00169
25 | C82G A111G A145G C150A C169A U176G | 0.00692
26 | C82G A111G A145G C150A C169A U176C | 0.0222
27 | C82G A111G A145G C150A C169A U176A | 0.0234
28 | C82G A111G C150U C169A | 0.0104
29 | C82G A111G C150U C169U | 0.0123
30 | C82G A111G C150U C169G | 0.00932
31 | C82G A111G A145G C169G U176G | 0.00505
32 | C82G A111G A145G C169G U176C | 0.0231
33 | C82G A111G A145G C169G U176A | 0.016
34 | C82G A111G C169G U176A | 0.0197
35 | C82G A111G C169G U176C | 0.0239
36 | C82G A111G C169G U176G | 0.0047
37 | C82G A111G A145U C150A U176G | 0.0136
38 | C82G A111G A145U C150A U176A | 0.03
39 | C82G A111G A145U C150A U176C | 0.0339
40 | C82G A111G A145G C150U | 0.316
41 | C82G A111G A145G C150G | 0.0374
42 | C82G A111G A145G C150A | 0.0499

Row | Variant | reverse-splicing fitness
43 | C82G A111G C150A C169G | 0.0109
44 | C82G A111G C150A C169U | 0.0115
45 | C82G A111G C150A C169A | 0.0122
46 | C82G A111G C150G C169U | 0.0107
47 | C82G A111G C150G C169G | 0.00817
48 | C82G A111G C150G C169A | 0.00975
49 | C82G A111G A145U C150A C169G U176C | 0.0146
50 | C82G A111G A145U C150A C169G U176G | 0.00554
51 | C82G A111G A145U C150A C169G U176A | 0.0149
52 | C82G A111G A120U C169G | 0.00481
53 | C82G A111G A120U C169A | 0.00418
54 | C82G A111G A120U C169U | 0.00572
55 | C82G A111G C169U | 0.0143
56 | C82G A111G C169G | 0.00859
57 | C82G A111G C169A | 0.00879
58 | C82G A111G A120U C150U C169A U176C | 0.00376
59 | C82G A111G A120U C150U C169A U176G | 0.00204
60 | C82G A111G A120U C150U C169A U176A | 0.00519
61 | C82G A111G C150G C169G U176C | 0.00922
62 | C82G A111G C150G C169G U176G | 0.00613
63 | C82G A111G C150G C169G U176A | 0.0106

Row | Variant | reverse-splicing fitness
64 | C82G A111G A145C C150G C169A U176A | 0.00983
65 | C82G A111G A145C C150G C169A U176C | 0.0105
66 | C82G A111G A145C C150G C169A U176G | 0.00615
67 | C82G A111G C150U C169G U176A | 0.0165
68 | C82G A111G C150U C169G U176C | 0.0201
69 | C82G A111G C150U C169G U176G | 0.00611
70 | C82G A111G A145C C150A C169G U176C | 0.0122
71 | C82G A111G A145C C150A C169G U176G | 0.00577
72 | C82G A111G A145C C150A C169G U176A | 0.0228
73 | C82G A111G A120U C150A C169U | 0.00399
74 | C82G A111G A120U C150A C169A | 0.00558
75 | C82G A111G A120U C150A C169G | 0.00433
76 | C82G A111G A145C U176A | 0.267
77 | C82G A111G A145C U176C | 0.258
78 | C82G A111G A145C U176G | 0.116
79 | C82G A111G A120U C150U C169G U176A | 0.00758
80 | C82G A111G A120U C150U C169G U176C | 0.00412
81 | C82G A111G A120U C150U C169G U176G | 0.0024
82 | C82G A111G A120U A145U C169U | 0.00451
83 | C82G A111G A120U A145U C169G | 0.00363
